Values of other authors in PMC3082522.
pKd: −log10 of the molar value.

Target: filamentous actin (Oryctolagus cuniculus) (UniProt P68135)

pKd: 6.66
Substance: espin (from UniProt Q63618)
